Measurements from patent US10894986B2, “Compositions and methods for treating or preventing prostate cancer and for detecting androgen receptor variants” (The Johns Hopkins University, priority 2008, dated 2021).

Legend:
[1] = test system: androgen-responsive genes (KLK3, KLK2, NKX3-1, FKBP5, TMPRSS2); details: LNCaP cells, absence of androgens
Source text: LNCaP cells were transfected with pcDNA-AR-V7 to express the untagged AR-V7 protein or the control pcDNA vector and cultured with or without 10 nmol/L R1 881 before being harvested for Western blot analysis or RNA extraction for expression microarray analysis. The genes shown were the top 20 ranked genes by fold induction following R1 881 treatment in pcDNA empty vector-transfected LNCaP cells. Expression ratios of the test sample versus the common reference (pcDNA empty vector-transfected LNCaP without R1 881) were represented by red (>1) and green colors (<1).

[2] = test system: LNCaP cells; experiment: MTS cell growth assay of transfected LNCaP cells; format: cell-based, human; details: charcoal stripped serum, absence or presence of 0.5 nM R1881
Procedure: LNCaP cells were transfected by AR-V7 and the control vector. A. Cell growth in medium supplemented with charcoal stripped serum (CSS) in absence or presence of 0.5 nM R1881 were monitored by MTS assay. Ectopic expression of AR-V7 in LNCaP cells was confirmed by western blot analysis (B). As shown the growth rates of AR-V7 expressing cells surpassed those of parental cells cultured in the presence of synthetic androgen R1881.

[3] = test system: PSA reporter gene; details: exogenously transfected, AR-negative PC-3 cells, presence or absence of R1881
Source text: PC-3 cells were transfected with pEGFP-AR and pEGFP-AR-V7 to express the prototype AR or AR-V7 and examined for the localization of GFP-tagged AR proteins in the presence or absence of 5 nmol/L R1 881. […] PC-3 cells were transfected with vector control (EGFP), a LBD-truncated AR mutant (EGFP-Q640X), AR-V7 (EGFP-AR-V7), and prototype AR (EGFP-AR) and subjected to luciferase assays and Western blot analysis following culturing in the presence or absence of R1 881. […] LNCaP cells were transfected with pcDNA-AR-V7 to express the untagged AR-V7 protein or the control pcDNA vector and cultured with or without 10 nmol/L R1 881 before being harvested for Western blot analysis or RNA extraction for expression microarray analysis. The genes shown were the top 20 ranked genes by fold induction following R1 881 treatment in pcDNA empty vector-transfected LNCaP cells. Expression ratios of the test sample versus the common reference (pcDNA empty vector-transfected LNCaP without R1 881) were represented by red (>1) and green colors (<1).
pEGFP-AR and pEGFP-Q640X, which contain the full-length prototype AR and AR Q640X LBD-truncated mutant cDNA, were kind gifts of Dr. Jocelyn Céraline (Université Strasbourg, Strasbourg, France). The cDNA encoding the full-length AR-V7 was inserted into the pEGFP-C3 vector to express the GFP-AR-V7 fusion protein. […]

B1: AR-V7: androgen receptor variant lacking the ligand binding domain, SEQ ID NO: 8, expressed from transfected cDNA (protein)
chain: MEVQLGLGRVYPRPPSKTYRGAFQNLFQSVREVIQNPGPRHPEAASAAPPGASLLLLQQQQQQQQQQQQQQQQQQQQQQQETSPRQQQQQQGEDGSPQAHRRGPTGYLVLDEEQQPSQPQSALECHPERGCVPEPGAAVAASKGLPQQLPAPPDEDDSAAPSTLSLLGPTFPGLSSCSADLKDILSEASTMQLLQQQQQEAVSEGSSSGRAREASGAPTSSKDNYLGGTSTISDNAKELCKAVSVSMGLGVEALEHLSPGEQLRGDCMYAPLLGVPPAVRPTPCAPLAECKGSLLDDSAGKSTEDTAEYSPFKGGYTKGLEGESLGCSGSAAAGSSGTLELPSTLSLYKSGALDEAAAYQSRDYYNFPLALAGPPPPPPPPHPHARIKLENPLDYGSAWAAAAAQCRYGDLASLHGAGAAGPGSGSPSAAASSSWHTLFTAEEGQLYGPCGGGGGGGGGGGGGGGGGGGGGGGEAGAVAPYGYTRPPQGLAGQESDFTAPDVWYPGGMVSRVPYPSPTCVKSEMGPWMDSYSGPYGDMRLETARDHVLPIDYYFPPQKTCLICGDEASGCHYGALTCGSCKVFFKRAAEGKQKYLCASRNDCTIDKFRRKNCPSCRLRKCYEAGMTLGEKFRVGNCKHLKMTRP
induction of androgen-responsive genes [1]: induced canonical androgen-responsive genes | cell growth [2]: promotes androgen independent growth | PSA reporter gene expression [3]: induced PSA reporter gene expression in an androgen-independent manner
